Test results reported in the nanobody polyreactivity screen of Harvey et al. (2022).

Test: yeast display, Sf9 membrane polyspecificity reagent, FACS + sequencing; frameworks hold sequencing errors
How it was run: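 Using colony PCR, genes from sorted yeast display clones were amplified, then sequenced on MiSeq at 2 × 250 and filtered by CDR length. The clones had been stained with 10% biotinylated, detergent-solubilized Sf9 membrane reagent for 1 hour at 4 °C and sorted by FACS into low and high (top ~1%) gates on anti-HA and streptavidin fluorescence. Polyreactivity labels come from the gate of origin.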

QVQLVESGGGLVQAGGSLRLSCAASGIIFVRYAMGWYRQAPGKERELVAAISSGGGSTYYADSVKGRFTISRDNAKNTVYLQMNSLKPEDTAVYYCATVVYPYSPRYDYWGQGTQVTVSS
polyreactivity (PSR sort gate): high polyreactivity

QVQLVESGGGLVQAGGSLRLSCAASGIIFVRYAMGWYRQAPGKERELVAAITRNGGRTYYADSVKGRFTISRDNAKNTVYLQMNSLKPEDTAVYYCAAYPAYPGTLEMDYWGQGTQVTVSS
polyreactivity (PSR sort gate): high polyreactivity

QVQLVESGGGLVQAGGSLRLSCAASGIIFVSNAMGWYRQAPGKERELVATINWSDDSTYYADSVKGRFTISRDNAKNTVYLQMNSLKPEDTAVYYCNKELYPVGDYEYWGLGTQVTVSS
polyreactivity (PSR sort gate): low polyreactivity

QVQLVESGGGLVQAGGSLRLSCAASGIIFVYNTMGWYRQAPGKERELVAAISYSGGGTYYADSVKGRFTISRDNAKNTVYLQMNSLKPEDTAVYYCAAETYYAPYDYWGQGTQVTVSS
polyreactivity (PSR sort gate): high polyreactivity

QVQLVESGGGLVQAGGSLRLSCAASGIIFWGNAMGWYRQAPGKERELVATITGRGGSTYYADSVKGRFTISRDNAKNTVYLQMNSLKPEDTAVYYCAASGGRPIFFYDVWGGIVRHDYWGQGTQVTVSS
polyreactivity (PSR sort gate): low polyreactivity

QVQLVESGGGLVQAGGSLRLSCAASGIIFWHYAMGWYRQAPGKERELVAAISSRGGYTYYADSVKGRFTISRDNAKNTVSLQMNSLKPEDTAVYYCNAGYYTHRYRFLVQGDYWGQGTQVTVSS
polyreactivity (PSR sort gate): high polyreactivity

QVQLVESGGGLVQAGGSLRLSCAASGIIFWRYAMGWYRQAPGKERELVAAISRRGGSTYYADSVKGRFTISRDNAKITVYLQMNSLKPEDTAVYYCAVLDWTLHYRSDYWGQGTQVTVSS
polyreactivity (PSR sort gate): high polyreactivity

QVQLVESGGGLVQAGGSLRLSCAASGIIFYDYAMGWSRQAPGKERELVATITRGGGTKYADSVKGRFTISRDNAKNTVYLQMNSLKPEDTAVYYCAADSHGVYEGDYWGQGTQVTVSS
polyreactivity (PSR sort gate): low polyreactivity

QVQLVESGGGLVQAGGSLRLSCAASGIIFYDYAMGWYRPAPGKERELVAAINYSGGSTYYADSVKGRFTISRDNAKNTVYLQMNSLKPEDTAVYYCAADNAVWEYDYWGQGTQVTVSS
polyreactivity (PSR sort gate): low polyreactivity

QVQLVESGGGLVQAGGSLRLSCAASGIIFYDYAMVWYRQAPGKERELVAAISWGGGSTSYADSVKGRFTISRDNAKNTVYLQMNSLKPEDTAVYYCNKVSLSKRRDYYWGQGTQVTVSS
polyreactivity (PSR sort gate): high polyreactivity

QVQLVESGGGLVQAGGSLRLSCAASGIIFYEFTMGWYRQAPGKERELVATISWSGGSTYYADSVKGRFTISRDNAKNTVYLQMNSLQPEDTAVYYCAADFADVQSISPDSAHEYDYWGQGTQVTVSS
polyreactivity (PSR sort gate): low polyreactivity

QVQLVESGGGLVQAGGSLRLSCAASGIIFYFYAMGWDSQAPGKERELVAAISGTGGRTYYADSVKGRFTISRDNAKNTVYLQMNSLKPEDTAVYYCAADRGGLRWFWQVLYDYWGQGTQVTESS
polyreactivity (PSR sort gate): low polyreactivity

QVQLVESGGGLVQAGGSLRLSCAASGIIFYFYAMGWYRQAPGKERELVAAISRGGSTKYADSVKGRFTISRDNAKNTVYLQMNSLKPEDTAVYYCAATRRRPSEYYYWGQGTQVTVSS
polyreactivity (PSR sort gate): high polyreactivity

QVQLVESGGGLVQAGGSLRLSCAASGIIFYGYAMGWYRQAPGKERELVAGISSGGSTYYADSVKGRFTISRDNAKNTVYLQMNSLKPEDTAVYYCNADGGYSYESTDHYGYDYWGQGTQVTVSS
polyreactivity (PSR sort gate): low polyreactivity

QVQLVESGGGLVQAGGSLRLSCAASGIIFYGYAMGWYRQATGKERELVAAISSGGGTNYADSVKGRFTISRDNAKNTVYLQMNSLKPEDTAVYYCAARQYRYYYWGQGTQVTVSS
polyreactivity (PSR sort gate): high polyreactivity

QVQLVESGGGLVQAGGSLRLSCAASGIIFYKYAMGSYRQSPWKERELVAVISRGGGSTYYADSVKGRFTISRDNAKNTVYLQMNSLKPEDTAVYYFAADPRVTRSYTYDYWGQGTQVTVSS
polyreactivity (PSR sort gate): high polyreactivity

QVQLVESGGGLVQAGGSLRLSCAASGIIFYLYAMGWYRQAPGKERELVAAISWRGGSTYYADSVKGRFTISRDNAKNTVYLQMNSLKPEDTAVYYCNKTQPIDLYGYWGQGTQVTVSS
polyreactivity (PSR sort gate): high polyreactivity

QVQLVESGGGLVQAGGSLRLSCAASGIIFYLYTMGWYRQAPGKERELVAAITRGGSTYYADSVKGRFTISRDNAKNTVYLQMNSLKPEDTSVYYCAAKHGPGYRRWYDYWGQGTQVTVSS
polyreactivity (PSR sort gate): high polyreactivity

QVQLVESGGGLVQAGGSLRLSCAASGIIFYPYAMGVYRKAPGKEREMVADITSGGGTNYADSVKGRFTISRDYAKNTVYLKMNSLKPEDTAVYYCAAEVRGYHWGTYYEFYYWGQGTQVTVSS
polyreactivity (PSR sort gate): low polyreactivity

QVQLVESGGGLVQAGGSLRLSCAASGIIFYPYAMGWYRQAPGKERELVAAISIGGGSTYYADSVKGRFTISRDNAKNTVYLQMNSLKPEDTAVYYCAAGTPYGILGYYYWGQGTQVTVSS
polyreactivity (PSR sort gate): low polyreactivity

QVQLVESGGGLVQAGGSLRLSCAASGIIFYQNTMGWYRQAPGKERELVATITKRGGSTYYADSVKGRFTISRDNAKNTVYLQMNSLKPEDTAVYYCNAAKYAASYIGYGYWGQGTQVTVSS
polyreactivity (PSR sort gate): high polyreactivity

QVQLVESGGGLVQAGGSLRLSCAASGIIFYRYAMGWYRQAPGKERELVAAISGSGGRTYYADSVKGRFTISRDNAKNTVYLQMNSLKPEDTAVYYCARVYDIYHYFYAYGGDYWGQGTQVTVSS
polyreactivity (PSR sort gate): high polyreactivity

QVQLVESGGGLVQAGGSLRLSCAASGIIFYRYAMGWYRQAPGKERELVAAISSSGGSTYYADSVKGRFTISRDNAKNTVYLQMNSLKPEDTAVYYCARVTTVYDGRGFVDVKRGYWGQGTQVTVSS
polyreactivity (PSR sort gate): high polyreactivity

QVQLVESGGGLVQAGGSLRLSCAASGIIFYTNAMGWYRQAPGKEREFVAAINTSGGITYYADSVKGRFTISRDNAKNTVYLQMNSLKPEDTAVYYCAADQTYERHWVYYWGQGTQVTVSS
polyreactivity (PSR sort gate): low polyreactivity

QVQLVESGGGLVQAGGSLRLSCAASGIIFYVYAMGWYRQAPGKERELVAAISSGGRTNYADSVKGRFTISRDNAKNTVYLQMNSLKPEDTAVYYCAAKSVRRRLGYWGQGTQVTVSS
polyreactivity (PSR sort gate): high polyreactivity

QVQLVESGGGLVQAGGSLRLSCAASGIIFYVYAMGWYRQAPGKERELVAAISSTSSTYADSVKGRFTISRDNAKNTVYLQMNSLKPEDTAVFYCNTDYSDGYPAFDYWGQGTQVTVSS
polyreactivity (PSR sort gate): low polyreactivity

QVQLVESGGGLVQAGGSLRLSCAASGIIFYWNAMGWYRQAPGQEREFDASISGSGGSTYADSVKGRFTISRDNAMNTVYFQMKSLKPEDTAVYYCAVLYWRPGYDYLGQGTQVTVSS
polyreactivity (PSR sort gate): high polyreactivity

QVQLVESGGGLVQAGGSLRLSCAASGIIFYWYAMGWYRQAPGKERELVAAISASGASTYYADSVKGRFTISRDNAKNTVYLQMNSLKPEDTAVYYCAAEHPWSRYDYWGQGTQVTVSS
polyreactivity (PSR sort gate): high polyreactivity

QVQLVESGGGLVQAGGSLRLSCAASGIIFYYAMGWYRQAPGKERELVASIRWSGDSTYYADSVKGRFTISRDNAKNTVYLQMNSLKPEDTAVYYCAAEPDSAVSYVSWRDYWGQGTQVTVSS
polyreactivity (PSR sort gate): low polyreactivity

QVQLVESGGGLVQAGGSLRLSCAASGIIFYYNAMGWYRQAPGKERELVAAIDDRGDSTYYADSVKGRFTISRDNAKNTVYLEMNSLKPEDTAVYYCATDGHYLYSWYKYDYWGQGTQVTVSS
polyreactivity (PSR sort gate): low polyreactivity

QVQLVESGGGLVQAGGSLRLSCAASGIIFYYNAMGWYRQAPGKERELVAAIDDRGDSTYYADSVKGRFTISRDNAKNTVYLQMNSLKPEDTAVYYCAARDRYLYFDAMDYWGQGTLVTVSS
polyreactivity (PSR sort gate): low polyreactivity

QVQLVESGGGLVQAGGSLRLSCAASGIIFYYYAMGWYRQAPGKERELVAAISRSGGITYYPDSVKGRFTISRDNAKNTEYFQMNSLKAEDTAVYYGNALRLVYYHPEDDYWGQGPQVTVSS
polyreactivity (PSR sort gate): high polyreactivity
